The results in this text go back to PMC7850899, “Nutrient transceptors physically interact with the yeast S6/protein kinase B homolog, Sch9, a TOR kinase target” (Biochemical Journal, 2021).

Sequences and labels used below:
B1: GST-tagged Sch9 (GST-Sch9) [S. cerevisiae] / Gap1 peptide 222-GVKGYGEAEFVFSFI-236 [S. cerevisiae] (parent complex)
chain 1: MMNFFTSKSSNQDTGFSSQHQHPNGQNNGNNNSSTAGNDNGYPCKLVSSGPCASSNNGALFTNFTLQTATPTTAISQDLYAMGTTGITSENALFQMKSMNNGISSVNNNNSNTPTIITTSQEETNAGNVHGDTGGNSLQNSEDDNFSSSSTTKCLLSSTSSLSINQREAAAAAYGPDTDIPRGKLEVTIIEARDLVTRSKDSQPYVVCTFESSEFISNGPESLGAINNNNNNNNNNQHNQNQHINNNNENTNPDAASQHHNNNSGWNGSQLPSIKEHLKKKPLYTHRSSSQLDQLNSCSSVTDPSKRSSNSSSGSSNGPKNDSSHPIWHHKTTFDVLGSHSELDISVYDAAHDHMFLGQVRLYPMIHNLAHASQHQWHSLKPRVIDEVVSGDILIKWTYKQTKKRHYGPQDFEVLRLLGKGTFGQVYQVKKKDTQRIYAMKVLSKKVIVKKNEIAHTIGERNILVTTASKSSPFIVGLKFSFQTPTDLYLVTDYMSGGELFWHLQKEGRFSEDRAKFYIAELVLALEHLHDNDIVYRDLKPENILLDANGNIALCDFGLSKADLKDRTNTFCGTTEYLAPELLLDETGYTKMVDFWSLGVLIFEMCCGWSPFFAENNQKMYQKIAFGKVKFPRDVLSQEGRSFVKGLLNRNPKHRLGAIDDGRELRAHPFFADIDWEALKQKKIPPPFKPHLVSETDTSNFDPEFTTASTSYMNKHQPMMTATPLSPAMQAKFAGFTFVDESAIDEHVNNNRKFLQNSYFMEPGSFIPGNPNLPPDEDVIDDDGDEDINDGFNQEKNMNNSHSQMDFDGDQHMDDEFVSGRFEI
chain 2: GVKGYGEAEFVFSFI
B2: GST-tagged Sch9 (GST-Sch9) [S. cerevisiae] / HA-tagged wild type Gap1 (HA-Gap1) [S. cerevisiae] (parent complex)
chain 1: B1 chain 1
chain 2: MSNTSSYEKNNPDNLKHNGITIDSEFLTQEPITIPSNGSAVSIDETGSGSKWQDFKDSFKRVKPIEVDPNLSEAEKVAIITAQTPLKHHLKNRHLQMIAIGGAIGTGLLVGSGTALRTGGPASLLIGWGSTGTMIYAMVMALGELAVIFPISGGFTTYATRFIDESFGYANNFNYMLQWLVVLPLEIVSASITVNFWGTDPKYRDGFVALFWLAIVIINMFGVKGYGEAEFVFSFIKVITVVGFIILGIILNCGGGPTGGYIGGKYWHDPGAFAGDTPGAKFKGVCSVFVTAAFSFAGSELVGLAASESVEPRKSVPKAAKQVFWRITLFYILSLLMIGLLVPYNDKSLIGASSVDAAASPFVIAIKTHGIKGLPSVVNVVILIAVLSVGNSAIYACSRTMVALAEQRFLPEIFSYVDRKGRPLVGIAVTSAFGLIAFVAASKKEGEVFNWLLALSGLSSLFTWGGICICHIRFRKALAAQGRGLDELSFKSPTGVWGSYWGLFMVIIMFIAQFYVAVFPVGDSPSAEGFFEAYLSFPLVMVMYIGHKIYKRNWKLFIPAEKMDIDTGRREVDLDLLKQEIAEEKAIMATKPRWYRIWNFWC

Variants of B1 are the subject of the first experiment. Put plainly: substitution peptide microarray; 100 or 500 µg/ml GST-Sch9; parent: 100; read off a plot.
For the variant chain 2 GVKGYFEAEFVFSFI, the percent of parent was ~330 % of wild type peptide. Take chain 2 GVKGYGEAEFVFCFI: the percent of parent is ~240 % of wild type peptide.

In the case of chain 2 GVKGYGEAEFVFSFE, the percent of parent is ~150 % of wild type peptide. As to chain 2 FVKGYGEAEFVFSFI, the percent of parent is ~140 % of wild type peptide.

Another experiment covers variants of B2. Nature of the experiment: GST pull-down assay; parent: 100.
Take chain 2 F233D: the percent of parent was 138 % of Gap1WT. Turning to chain 2 F231D, chain 2 V232K, chain 2 F233D, the percent of parent is 102 % of Gap1WT.

As for chain 2 V232K, the percent of parent was 86.9 % of Gap1WT. As for chain 2 F231D, the percent of parent is 98.9 % of Gap1WT.
